US20210371526A1 (AMPSOURCE BIOPHARMA SHANGHAI, published 2021)

Columns and labels:
[1] = biological target: T1, Mucin1 on tumor cells (MCF-7, BT-549, HCC70, T-47D, HCC1954, SK-OV-3, Hela, HT-29) (human, UniProt P15941 24-1255); assay: flow cytometry on BT-549 cells
T1 construct: whole, on cells; also called tumor cells over-expressing Mucin1

[2] = biological target: T1, Mucin1 on tumor cells (MCF-7, BT-549, …); assay: cell-based or functional assay
[3] = biological target: T1, Mucin1 on tumor cells (MCF-7, BT-549, …); assay: flow cytometry on T-47D cells
[4] = biological target: T1, Mucin1 on tumor cells (MCF-7, BT-549, …); assay: flow cytometry on HCC1954 cells
[5] = biological target: T1, Mucin1 on tumor cells (MCF-7, BT-549, …); assay: flow cytometry on Hela cells
[6] = biological target: T1, Mucin1 on tumor cells (MCF-7, BT-549, …); assay: flow cytometry on HCC70 cells
[7] = biological target: T1, Mucin1 on tumor cells (MCF-7, BT-549, …); assay: flow cytometry on SK-OV-3 cells
[8] = biological target: T1, Mucin1 on tumor cells (MCF-7, BT-549, …); assay: cell-based or functional assay; remark: listed apart in the source

B1: Bispecific antibody AB11K (Anti-Mucin1×CD3, scFv1-scFv2-Fc) (bispecific antibody)
chain: EVQLVESGGGLVQPGGSMRLSCVASGFPFSNYWMNWVRQAPGKGLEWVGEIRLKSNNYTTHYAESVKGRFTISRDDSKNSLYLQMNSLKTEDTAVYYCTRHYYFDYWGQGTLVTVSSGGGGSGGGGSGGGGSDIVMTQSPLSNPVTPGEPASISCRSSKSLLHSNGITYFFWYLQKPGQSPQLLIYQMSNLASGVPDRFSGSGSGTDFTLRISRVEAEDVGVYYCAQNLELPPTFGQGTKVEIKGGGGGGSGGGGSGGGGSSSSSKAPPPSEVQLLESGGGLVQPGGSLKLSCAASGFTFNTYAMNWVRQAPGKGLEWVARIRSKYNNYATYYADSVKDRFTISRDDSKNTAYLQMNNLKTEDTAVYYCVRHGNFGNSYVSWFAYWGQGTLVTVSSGGGGSGGGGSGGGGSELVVTQEPSLTVSPGGTVTLTCRSSTGAVTTSNYANWVQQKPGQAPRGLIGGTNKRAPGTPARFSGSLLGGKAALTLSGVQPEDEAEYYCALWYSNLWVFGGGTKLTVLDKTHTCPPCPAPEAAGGPSVFLFPPKPKDQLMISRTPEVTCVVVDVSHEDPEVKFNWYVDGVEVHNAKTKPREEQYASTYRVVSVLTVLHQDWLNGKEYKCKVSNKALPASIEKTISKAKGQPREPQVYTLPPSRDELTKNQVSLTCLVKGFYPSDIAVEWESNGQPENNYKTTPPVLDSDGSFFLYSKLTVDKSRWQQGNVFSCSVLHEALHNHYTQKSLSLSPG
For B1, the EC50 [1] was 287 nM, the “PBMC killing EC50, BT-549 cells” value [2] was 956 pM and the “PBMC killing EC50, HCC70 cells” value [2] was 595 pM. The “PBMC killing EC50, HCC1954 cells” value [2] was 1890 pM, the “PBMC killing EC50, HT-29 cells” value [2] was 9.55 nM and the “PBMC killing EC50, Hela cells” value [2] was 4.81 nM. The “PBMC killing EC50, MCF-7 cells” value [2] was 131 pM, the “T cell killing EC50, BT-549 cells” value [2] was 141 pM and the “T cell killing EC50, HCC70 cells” value [2] was 185 pM. The “T cell killing EC50, HCC1954 cells” value [2] was 281 pM, the “T cell killing EC50, HT-29 cells” value [2] was 1580 pM and the “T cell killing EC50, Hela cells” value [2] was 278 pM. For the same binder, the “T cell killing EC50, MCF-7 cells” value [2] was 153 pM, the “T cell killing EC50, SK-OV-3 cells” value [2] was 689 pM and the “T cell killing EC50, T-47D cells” value [2] was 84.5 pM. It also gave an EC50 [3] of 5.05 nM, an EC50 [4] of 81.2 nM and an EC50 [5] of 5.51 nM. The EC50 [6] was 59 nM, the EC50 [7] was 93.7 nM and the “T cell activation EC50 (Jurkat-NFAT luciferase) with BT-549 cells” value [8] was 10.5 nM. For the same binder, the “T cell activation EC50 (Jurkat-NFAT luciferase) with HCC70 cells” value [8] was 3.02 nM, the “T cell activation EC50 (Jurkat-NFAT luciferase) with HCC1954 cells” value [8] was 5.6 nM and the “T cell activation EC50 (Jurkat-NFAT luciferase) with HT-29 cells” value [8] was 6.71 nM. For the same binder, the “T cell activation EC50 (Jurkat-NFAT luciferase) with Hela cells” value [8] was 7.24 nM, the “T cell activation EC50 (Jurkat-NFAT luciferase) with MCF-7 cells” value [8] was 14.2 nM and the “T cell activation EC50 (Jurkat-NFAT luciferase) with SK-OV-3 cells” value [8] was 10.4 nM. The “T cell activation EC50 (Jurkat-NFAT luciferase) with T-47D cells” value [8] was 0.629 nM.
